Patent US20120294822A1 (ALDERBIO, published 2012)
Positions count from the first letter of the chain named.

B1: Antibody Ab1 (antibody, human IgG1, kappa, N297A, V domains shown)
VH: QSLEESGGRLVTPGTPLTLTCTVSGLDLSSYYMQWVRQAPGKGLEWIGVIGINDNTYYASWAKGRFTISRASSTTVDLKMTSLTTEDTATYFCARGDIWGPGTLVTVSS
VL: QVLTQTASPVSAAVGSTVTINCQASQSVYDNNYLAWYQQKPGQPPKQLIYSTSTLASGVSSRFKGSGSGTQFTLTISDLECADAATYYCLGSYDCSSGDCFVFGGGTEVVVKR
notes: Chimeric (rabbit variable, human gamma-1/kappa constant) full-length anti-CGRP antibody
B2: Antibody Ab11 (antibody, human IgG1, kappa, N297A, V domains shown)
VH: QSLEESGGRLVTPGGSLTLTCTVSGIDVTNYYMQWVRQAPGKGLEWIGVIGVNGKRYYASWAKGRFTISKTSSTTVDLKMTSLTTEDTATYFCARGDIWGPGTLVTVSS
VL: B1 VL with A12P, Q23R, D30Y, L79V, E80Q, A82D, S97N
notes: Chimeric full-length anti-CGRP antibody; also called Abll
B3: Antibody Ab9 (antibody, human IgG1, kappa, N297A, V domains shown)
VH: QSLEESGGRLVTPGTPLTLTCTVSGIGLSSYYMQWVRQSPGRGLEWIGVIGSDGKTYYATWAKGRFTISKTSSTTVDLRMASLTTEDTATYFCTRGDIWGPGTLVTVSS
VL: B1 VL with A7P, S27N, D30N, K64R, L79V, E80Q, A82D, S97R
notes: Chimeric full-length anti-CGRP antibody
B4: Antibody Ab7 (antibody, human IgG1, kappa, N297A, V domains shown)
VH: QEQLKESGGRLVTPGTSLTLTCTVSGIDLSNHYMQWVRQAPGKGLEWIGVVGINGRTYYASWAKGRFTISRTSSTTVDLKMTRLTTEDTATYFCARGDIWGPGTLVTVSS
VL: B1 VL with D30N, N31Y, L79V, E80Q, A82D, S97T
notes: as for B3
B5: Antibody Ab4 (antibody, human IgG1, kappa, N297A, V domains shown)
VH: B1 VH with T22S, L26I, S30G, Q34N, D54G, N55A, R70K, A71T
VL: QVLTQTPSPVSAAVGSTVTINCQASQSVYHNTYLAWYQQKPGQPPKQLIYDASTLASGVPSRFSGSGSGTQFTLTISGVQCNDAAAYYCLGSYDCTNGDCFVFGGGTEVVVKR
B6: Antibody Ab2 (antibody, human IgG1, kappa, N297A)
heavy: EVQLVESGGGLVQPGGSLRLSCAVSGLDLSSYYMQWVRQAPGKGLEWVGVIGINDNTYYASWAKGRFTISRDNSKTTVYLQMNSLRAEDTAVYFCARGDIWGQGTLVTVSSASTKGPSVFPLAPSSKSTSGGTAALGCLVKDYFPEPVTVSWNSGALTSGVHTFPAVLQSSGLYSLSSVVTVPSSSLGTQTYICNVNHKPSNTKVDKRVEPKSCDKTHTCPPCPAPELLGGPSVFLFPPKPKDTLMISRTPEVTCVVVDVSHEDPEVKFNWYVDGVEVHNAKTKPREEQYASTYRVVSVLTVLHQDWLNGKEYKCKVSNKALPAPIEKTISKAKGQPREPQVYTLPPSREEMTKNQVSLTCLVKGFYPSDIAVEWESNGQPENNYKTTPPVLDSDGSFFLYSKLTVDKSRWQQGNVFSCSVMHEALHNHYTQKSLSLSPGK
light: QVLTQSPSSLSASVGDRVTINCQASQSVYDNNYLAWYQQKPGKVPKQLIYSTSTLASGVPSRFSGSGSGTDFTLTISSLQPEDVATYYCLGSYDCSSGDCFVFGGGTKVEIKRTVAAPSVFIFPPSDEQLKSGTASVVCLLNNFYPREAKVQWKVDNALQSGNSQESVTEQDSKDSTYSLSSTLTLSKADYEKHKVYACEVTHQGLSSPVTKSFNRGEC
notes: Humanized full-length anti-CGRP antibody
B7: Antibody Ab14 (antibody, human IgG1, kappa, N297A)
heavy: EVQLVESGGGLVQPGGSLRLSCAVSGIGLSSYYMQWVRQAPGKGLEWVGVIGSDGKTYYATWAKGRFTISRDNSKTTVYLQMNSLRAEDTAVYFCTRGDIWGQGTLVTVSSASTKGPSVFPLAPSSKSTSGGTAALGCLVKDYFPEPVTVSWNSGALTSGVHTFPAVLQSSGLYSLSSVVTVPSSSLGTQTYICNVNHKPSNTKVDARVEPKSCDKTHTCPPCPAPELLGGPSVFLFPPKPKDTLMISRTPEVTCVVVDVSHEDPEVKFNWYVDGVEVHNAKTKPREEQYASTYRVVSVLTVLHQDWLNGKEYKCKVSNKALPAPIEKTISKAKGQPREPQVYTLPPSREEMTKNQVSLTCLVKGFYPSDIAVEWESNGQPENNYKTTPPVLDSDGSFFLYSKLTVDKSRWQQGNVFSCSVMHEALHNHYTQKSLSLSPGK
light: B6 light with S27N, D30N, S97R
notes: as for B6
B8: Antibody Ab8 (antibody, human IgG1, kappa, N297A, V domains shown)
VH: EVQLVESGGGLVQPGGSLRLSCAVSGIDLSNHYMQWVRQAPGKGLEWVGVVGINGRTYYASWAKGRFTISRDNSKTTVYLQMNSLRAEDTAVYFCARGDIWGQGTLVTVSS
VL: QVLTQSPSSLSASVGDRVTINCQASQSVYNYNYLAWYQQKPGKVPKQLIYSTSTLASGVPSRFSGSGSGTDFTLTISSLQPEDVATYYCLGSYDCSTGDCFVFGGGTKVEIKR
notes: as for B6
B9: Antibody Ab6 (antibody, human IgG1, kappa, N297A)
heavy: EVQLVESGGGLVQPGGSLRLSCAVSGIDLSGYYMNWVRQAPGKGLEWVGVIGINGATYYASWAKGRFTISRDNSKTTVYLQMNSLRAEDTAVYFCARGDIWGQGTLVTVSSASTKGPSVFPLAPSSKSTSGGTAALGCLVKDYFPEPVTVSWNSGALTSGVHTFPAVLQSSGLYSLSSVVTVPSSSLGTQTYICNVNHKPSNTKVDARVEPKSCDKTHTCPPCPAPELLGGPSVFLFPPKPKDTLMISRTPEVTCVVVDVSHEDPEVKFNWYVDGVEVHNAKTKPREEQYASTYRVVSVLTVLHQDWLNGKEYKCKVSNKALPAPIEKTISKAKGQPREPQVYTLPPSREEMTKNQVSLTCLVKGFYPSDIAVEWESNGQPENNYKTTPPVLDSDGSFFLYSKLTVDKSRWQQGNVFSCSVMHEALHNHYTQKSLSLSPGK
light: B6 light with D30H, N32T, S51D, T52A, S96T, S97N
notes: as for B6
B10: Antibody Ab3 (antibody, human IgG1, kappa, N297A)
heavy: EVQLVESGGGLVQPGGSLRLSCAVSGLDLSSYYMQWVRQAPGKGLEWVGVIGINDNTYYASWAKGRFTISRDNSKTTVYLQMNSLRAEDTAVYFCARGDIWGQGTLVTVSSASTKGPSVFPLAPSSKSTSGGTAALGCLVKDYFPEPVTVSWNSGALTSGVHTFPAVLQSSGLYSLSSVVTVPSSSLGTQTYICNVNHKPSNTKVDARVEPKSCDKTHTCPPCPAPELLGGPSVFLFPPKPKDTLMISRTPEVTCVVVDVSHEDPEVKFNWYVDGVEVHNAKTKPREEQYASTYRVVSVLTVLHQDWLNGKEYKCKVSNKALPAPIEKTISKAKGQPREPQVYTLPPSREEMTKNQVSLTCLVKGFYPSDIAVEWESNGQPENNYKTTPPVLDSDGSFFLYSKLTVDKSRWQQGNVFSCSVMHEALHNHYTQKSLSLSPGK
light: B6 light
B11: Antibody Ab10 (antibody, human IgG1, kappa, N297A)
heavy: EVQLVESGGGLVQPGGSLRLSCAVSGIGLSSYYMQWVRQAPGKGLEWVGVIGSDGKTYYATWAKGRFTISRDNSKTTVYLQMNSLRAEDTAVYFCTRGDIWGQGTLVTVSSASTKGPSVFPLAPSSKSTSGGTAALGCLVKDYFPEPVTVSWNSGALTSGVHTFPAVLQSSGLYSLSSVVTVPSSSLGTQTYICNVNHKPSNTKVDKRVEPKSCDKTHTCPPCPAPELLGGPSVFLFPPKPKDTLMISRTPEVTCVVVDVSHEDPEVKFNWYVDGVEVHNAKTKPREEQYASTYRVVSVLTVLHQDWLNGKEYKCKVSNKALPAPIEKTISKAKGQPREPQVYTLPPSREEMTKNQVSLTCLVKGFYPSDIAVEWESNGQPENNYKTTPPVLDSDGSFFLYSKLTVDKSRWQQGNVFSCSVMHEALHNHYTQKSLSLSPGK
light: B6 light with S27N, D30N, S97R
notes: as for B6
B12: Antibody Ab12 (antibody, human IgG1, kappa, N297A, V domains shown)
VH: B8 VH with L29V, S30T, H32Y, V51I, I53V, R56K, T57R
VL: B8 VL with Q23R, N30Y, Y31N, T97N
notes: as for B6
B13: Antibody Ab5 (antibody, human IgG1, kappa, N297A)
heavy: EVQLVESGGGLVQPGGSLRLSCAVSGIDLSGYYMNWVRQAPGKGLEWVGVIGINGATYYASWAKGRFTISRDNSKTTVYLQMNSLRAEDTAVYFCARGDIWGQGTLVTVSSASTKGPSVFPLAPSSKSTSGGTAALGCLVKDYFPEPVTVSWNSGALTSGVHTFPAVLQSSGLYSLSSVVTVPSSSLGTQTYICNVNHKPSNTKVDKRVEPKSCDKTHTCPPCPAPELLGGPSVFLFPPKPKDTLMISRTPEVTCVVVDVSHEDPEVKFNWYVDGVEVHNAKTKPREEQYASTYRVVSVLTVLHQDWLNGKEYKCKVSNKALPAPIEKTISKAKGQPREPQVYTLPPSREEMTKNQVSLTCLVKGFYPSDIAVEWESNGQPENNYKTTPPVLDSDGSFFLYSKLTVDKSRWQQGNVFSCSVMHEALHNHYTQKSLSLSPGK
light: B6 light with D30H, N32T, S51D, T52A, S96T, S97N

Biological target: T1, Homo sapiens CGRP-alpha (Calcitonin Gene Related Peptide alpha) (Homo sapiens, -NH2 at the C-terminal end as printed ('wherein the N-terminal phenylalanine is amidated'); 125I radiolabeled in the receptor binding assay of Example 6)
T1 construct: 37-residue synthetic peptide from American Peptides / Bachem; Coated directly on the plate in the ELISA of recombinant antibodies; also called CGRPα; human CGRPα
T1 peptide: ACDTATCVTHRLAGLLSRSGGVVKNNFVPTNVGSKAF
Test: ELISA, CGRPα coated on plate, anti-human IgG Fc-HRP detection
Experimental: To characterize recombinant expressed antibodies for their ability to bind to human-CGRPα antibody-containing solutions were tested by ELISA. All incubations were done at room temperature. Briefly, Immulon IV plagtes (Thermo Scientific), were coated with a CGRPα containing solution (1 ut/mL in PBS) for 2 hours. CGRPα-coated plates were then washed three times in wash buffer (PBS, 0.05% Tween-20). The plates were then blocked using a blocking solution (PBS, 0.5% fish skin gelatin, 0.05% Tween-20) for approximately one hour. The blocking solution was then removed and the plates were then incubated with a dilution series of the antibody being tested for approximately one hour. At the end of this incubation, the plate was washed three times with wash buffer and further incubated with a secondary antibody containing solution (Peroxidase conjugated affinipure F(ab′)2 fragment goat anti-human IgG, Fc fragment specific (Jackson Immunoresearch) for approximately 45 minutes and washed three times. At that point a substrate solution (TMB peroxidase substrate, BioFx) and incubated for 3 to 5 minutes in the dark. The reaction was stopped by addition of a HCl containing solution (0.5M) and the plate was read at 450 nm in a plate-reader.

binding result	Binder
binds	B1
binds	B2
binds	B3
binds	B4
binds	B5
binds	B6
binds	B7
binds	B8
binds	B9
binds	B10
binds	B11
binds	B12
binds	B13
